In US20260078196A1 (TJ BIOPHARMA SHANGHAI, published 2026):

T1: HEK293-MUC16 (13810-14507) (human, UniProt Q8WXI7 13810-14507)
T1 construct: range 13810-14507; also called MUC16 overexpressed HEK293 cells
T1 sequence: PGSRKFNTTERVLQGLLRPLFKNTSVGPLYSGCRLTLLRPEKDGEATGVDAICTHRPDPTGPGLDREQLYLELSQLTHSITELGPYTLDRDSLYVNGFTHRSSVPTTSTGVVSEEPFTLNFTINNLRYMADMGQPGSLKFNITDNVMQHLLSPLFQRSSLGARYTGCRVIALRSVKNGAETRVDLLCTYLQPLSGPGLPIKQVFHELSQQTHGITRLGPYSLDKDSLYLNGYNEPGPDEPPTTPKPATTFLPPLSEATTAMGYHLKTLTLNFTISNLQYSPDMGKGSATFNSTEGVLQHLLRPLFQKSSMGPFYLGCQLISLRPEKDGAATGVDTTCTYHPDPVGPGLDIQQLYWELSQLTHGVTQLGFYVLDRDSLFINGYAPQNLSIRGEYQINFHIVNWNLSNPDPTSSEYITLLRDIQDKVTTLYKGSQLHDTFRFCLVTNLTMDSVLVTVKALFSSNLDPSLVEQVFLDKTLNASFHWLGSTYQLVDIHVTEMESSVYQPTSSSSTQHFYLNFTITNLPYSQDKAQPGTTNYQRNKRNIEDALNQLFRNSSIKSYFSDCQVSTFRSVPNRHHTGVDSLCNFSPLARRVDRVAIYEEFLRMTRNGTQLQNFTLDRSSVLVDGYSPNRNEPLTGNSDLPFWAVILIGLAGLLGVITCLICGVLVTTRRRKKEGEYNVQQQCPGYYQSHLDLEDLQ

B1: parental anti-4-1BB sdAb antibody conjugated with IgG1 Fc fragment (Fc fusion)
chain: QVQLQESGGGLVQPGGSLRLSCAASGYTYSSNCMGWFRQAPGKGLEGVAVICTGGGSPSYADSVKGRFTISRDNAKNTLYLQMNSLRAEDTAVYYCAADLLRAGTPLSSYEFNYWGQGTLVTVSS
notes: also called 4-1BB sdAb-Fc; not shown: IgG1 Fc fragment
B2: 3A5 (antibody, human IgG1, kappa, V domains shown)
VH: EVQLVESGGGLVQPGGSLRLSCAASGYSITNDYAWNWVRQAPGKGLEWVGYISYSGYTTYNPSIKSRFTISRDTSKNTLYLQMNSLRAEDTAVYYCARWTSGLDYWGQGTLVTVSS
VL: DIQMTQSPSSLSASVGDRVTITCKASDLIHNWLAWYQQKPGKAPKLLIYGATSLETGVPSRFSGSGSGTDFTLTISSLQPEDFATYYCQQYWTTPFTFGQGTKVEIKR
notes: Benchmark anti-MUC16 antibody; printed both as h3A5 and 3A5; also called h3A5; benchmarker 3A5

What was measured:
[1] = target: T2, monomeric human 4-1BB (human, UniProt Q07011 24-186, limits assumed); experiment: SPR, measured in parallel
T2 construct: SPR analyte/ligand

[2] = target: T2, monomeric human 4-1BB; experiment: SPR, monomeric human 4-1BB
[3] = target: T3, 4-1BB on cells (human, UniProt Q07011 24-255); experiment: flow cytometry (GMFI) on HEK293T-4-1BB cells
T3 construct: Species is stated as human for section 2.2 as a whole, not for each cell line; also called HEK293 cells expressing 4-1BB; 4-1BB overexpressed HEK293 cell

[4] = target: T4, soluble recombinant human 4-1BB (human, UniProt Q07011 24-186); experiment: ELISA (OD450) on soluble recombinant human 4-1BB
T4 construct: ELISA antigen

[5] = target: T5, human MUC16 on cells (human, UniProt Q8WXI7 1-14507); experiment: flow cytometry (MFI GeoMean) on OVCAR3 cells, nM is the unit of the x axis Log10[Ab] (nM)
T5 construct: whole, on cells; also called huMUC16; MUC16 on OVCAR3 and SNU216 cells

[6] = target: T5, human MUC16 on cells; experiment: flow cytometry (MFI GeoMean) on SNU216 cells, nM is the unit of the x axis Log10[Ab] (nM)
[7] = target: T1, HEK293-MUC16 (13810-14507); experiment: flow cytometry (MFI GeoMean) on HEK293-MUC16 (13810-14507) cells; the curve lies on the Iso curve up to about 4 nM and reaches only about 8000 at 100 nM against 40000-75000 for the others; paragraph 397 says h3A5 does not bind these cells; no unit in the table, nM from the x axis

T2 sequence (Q07011 24-186 limits assumed): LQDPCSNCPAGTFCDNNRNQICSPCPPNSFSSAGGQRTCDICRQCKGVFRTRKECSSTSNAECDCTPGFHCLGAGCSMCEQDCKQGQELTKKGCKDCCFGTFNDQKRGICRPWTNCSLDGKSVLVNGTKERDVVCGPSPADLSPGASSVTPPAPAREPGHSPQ
T4 sequence (Q07011 24-186 limits assumed): as above
T3 sequence (Q07011 24-255): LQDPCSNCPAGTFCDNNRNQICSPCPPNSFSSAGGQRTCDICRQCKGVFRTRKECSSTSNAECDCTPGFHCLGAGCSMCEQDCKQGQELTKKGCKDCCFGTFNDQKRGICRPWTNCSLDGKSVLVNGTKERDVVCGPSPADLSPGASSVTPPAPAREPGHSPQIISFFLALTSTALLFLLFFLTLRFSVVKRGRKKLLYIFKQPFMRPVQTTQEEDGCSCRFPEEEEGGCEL

Row | Binder | Kd [1] | kon [2] | EC50 [3] | EC50 [4] | EC50 [5] | EC50 [6] | EC50 [7]
1 | B1 | 4.39 nM | 383000 M⁻¹ s⁻¹ | 0.131 nM | 0.071 nM | – | – | –
2 | B2 | – | – | – | – | 0.799 nM | 0.571 nM | 63.4 nM
